Holding throughout (test): IP-MS rep 2
For one test, the target named is T1, AT3G10480.3 NAC050 (Arabidopsis thaliana, UniProt Q9SQX9 1-447, limits assumed).
T1 construct: Endogenous protein found by mass spectrometry
T1 sequence (looked up): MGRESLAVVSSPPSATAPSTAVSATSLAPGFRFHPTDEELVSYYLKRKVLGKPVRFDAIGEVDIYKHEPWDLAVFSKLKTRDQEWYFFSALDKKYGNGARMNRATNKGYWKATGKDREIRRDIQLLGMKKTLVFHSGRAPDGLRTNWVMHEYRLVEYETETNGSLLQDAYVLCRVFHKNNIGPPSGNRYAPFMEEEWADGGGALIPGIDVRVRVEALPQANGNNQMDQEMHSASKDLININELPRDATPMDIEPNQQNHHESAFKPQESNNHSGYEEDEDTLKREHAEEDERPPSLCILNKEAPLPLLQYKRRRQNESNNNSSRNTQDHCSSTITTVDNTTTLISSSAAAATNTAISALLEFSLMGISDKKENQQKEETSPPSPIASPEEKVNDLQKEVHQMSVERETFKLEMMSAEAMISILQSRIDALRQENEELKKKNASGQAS
In a few lines:
(§1)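 Ten grams of unopened floral buds from Col-0 wild type and FLAG-tagged transgenic Arabidopsis lines were ground in liquid nitrogen, homogenised in 25 mL IP buffer and filtered through Miracloth. Lysates were incubated with 250 μL anti-FLAG M2 magnetic beads at 4° C for 2 hours, washed and eluted with TBS containing 250 μg/mL 3×FLAG peptides. Eluted proteins were precipitated with trichloroacetic acid and analysed by mass spectrometry to give peptide counts for co-purified proteins.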

The next test addresses T2, AT5G51230.1 EMF2 (Arabidopsis thaliana, UniProt Q8L6Y4 1-631).
T2 construct: Endogenous protein found by mass spectrometry; also called EMBRYONIC FLOWER 2
T2 sequence (looked up): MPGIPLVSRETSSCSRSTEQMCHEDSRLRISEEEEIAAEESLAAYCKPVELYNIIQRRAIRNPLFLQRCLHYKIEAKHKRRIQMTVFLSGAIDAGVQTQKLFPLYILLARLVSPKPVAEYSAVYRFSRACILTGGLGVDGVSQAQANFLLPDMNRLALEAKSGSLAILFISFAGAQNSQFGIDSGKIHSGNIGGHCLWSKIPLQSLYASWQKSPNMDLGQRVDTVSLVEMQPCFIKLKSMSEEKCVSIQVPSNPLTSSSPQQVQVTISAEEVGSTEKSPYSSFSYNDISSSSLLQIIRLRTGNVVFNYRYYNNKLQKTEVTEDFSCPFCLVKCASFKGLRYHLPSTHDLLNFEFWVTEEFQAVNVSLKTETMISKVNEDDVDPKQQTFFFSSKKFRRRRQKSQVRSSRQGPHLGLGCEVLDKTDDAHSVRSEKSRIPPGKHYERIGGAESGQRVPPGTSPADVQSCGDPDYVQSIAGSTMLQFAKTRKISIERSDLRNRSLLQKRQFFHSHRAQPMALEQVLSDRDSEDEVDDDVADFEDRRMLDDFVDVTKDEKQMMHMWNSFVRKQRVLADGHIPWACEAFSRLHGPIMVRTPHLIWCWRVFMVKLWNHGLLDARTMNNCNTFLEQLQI
In a few lines: as §1

In the next test the target is T3, AT2G23380.1 CLF (Arabidopsis thaliana, UniProt P93831 1-902).
T3 construct: Endogenous protein found by mass spectrometry; also called CURLY LEAF
T3 sequence (looked up): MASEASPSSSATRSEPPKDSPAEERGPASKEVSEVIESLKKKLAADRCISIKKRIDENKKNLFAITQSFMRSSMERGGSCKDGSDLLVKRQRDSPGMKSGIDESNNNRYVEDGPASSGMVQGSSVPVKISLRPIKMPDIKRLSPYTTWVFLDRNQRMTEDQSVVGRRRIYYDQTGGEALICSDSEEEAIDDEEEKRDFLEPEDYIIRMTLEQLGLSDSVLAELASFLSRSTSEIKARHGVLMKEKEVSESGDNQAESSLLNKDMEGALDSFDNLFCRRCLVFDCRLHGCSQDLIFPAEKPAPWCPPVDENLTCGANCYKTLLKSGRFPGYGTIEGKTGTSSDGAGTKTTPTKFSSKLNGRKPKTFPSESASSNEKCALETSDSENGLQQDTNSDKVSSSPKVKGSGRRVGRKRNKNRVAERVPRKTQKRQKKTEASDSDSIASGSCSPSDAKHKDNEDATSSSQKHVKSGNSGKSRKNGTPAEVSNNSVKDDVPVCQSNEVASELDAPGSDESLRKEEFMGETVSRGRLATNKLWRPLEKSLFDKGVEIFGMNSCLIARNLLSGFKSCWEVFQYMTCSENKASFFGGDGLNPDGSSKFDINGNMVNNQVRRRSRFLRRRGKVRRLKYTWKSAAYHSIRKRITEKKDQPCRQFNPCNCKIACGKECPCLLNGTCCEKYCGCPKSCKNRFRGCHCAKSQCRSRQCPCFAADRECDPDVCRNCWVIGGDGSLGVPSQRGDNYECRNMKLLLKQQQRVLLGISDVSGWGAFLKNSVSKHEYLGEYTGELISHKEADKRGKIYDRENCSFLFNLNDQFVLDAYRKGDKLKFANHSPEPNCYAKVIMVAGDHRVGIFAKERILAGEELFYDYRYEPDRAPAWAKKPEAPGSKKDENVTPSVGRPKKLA
The method, boiled down:
as §1

In the next test the target is T4, AT4G35510.1 TRBIP1 (Arabidopsis thaliana).
T4 construct: Endogenous protein found by mass spectrometry
T4 chain: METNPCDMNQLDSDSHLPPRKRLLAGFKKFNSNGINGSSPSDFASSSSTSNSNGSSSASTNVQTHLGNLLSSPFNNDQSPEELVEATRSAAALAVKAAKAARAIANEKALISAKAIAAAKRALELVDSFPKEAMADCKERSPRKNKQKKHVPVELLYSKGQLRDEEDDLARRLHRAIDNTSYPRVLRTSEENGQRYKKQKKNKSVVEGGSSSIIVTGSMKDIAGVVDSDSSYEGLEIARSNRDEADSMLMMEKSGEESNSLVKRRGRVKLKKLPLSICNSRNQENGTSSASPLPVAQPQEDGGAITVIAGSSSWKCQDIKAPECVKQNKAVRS
In a few lines:
as §1

A further test concerns the target T5, AT5G08450.1 HDC1 (Arabidopsis thaliana).
T5 construct: Endogenous protein found by mass spectrometry
In a few lines: as §1

The target of another test is T6, AT1G49950.3 TRB1 (Arabidopsis thaliana, UniProt Q8VWK4 1-300, limits assumed).
T6 construct: Endogenous protein found by mass spectrometry
T6 sequence: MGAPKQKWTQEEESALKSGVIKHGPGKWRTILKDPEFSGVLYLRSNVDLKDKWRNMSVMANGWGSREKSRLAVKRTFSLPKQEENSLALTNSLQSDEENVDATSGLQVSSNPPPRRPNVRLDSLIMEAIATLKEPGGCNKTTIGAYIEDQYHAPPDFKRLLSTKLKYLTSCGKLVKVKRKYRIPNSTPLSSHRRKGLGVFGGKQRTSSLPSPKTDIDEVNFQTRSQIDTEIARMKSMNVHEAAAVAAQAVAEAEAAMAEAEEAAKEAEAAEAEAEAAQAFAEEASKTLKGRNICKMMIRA
The method, boiled down:
as §1

Consider one molecule from US20250042956A1 (University of California, published 2025).

B1: TRBIP2 (bait of the TRBIP2 IP-MS) (other, not shown: small tags and cut ends)
chain: MATNACLESDSLLPPRKRLLAGFKNQNSRISNESPSPPFASSSSSTTTSNGSSASAVVHTHHLDHLLNDQTRSPEELAQASKATAALAVKVAKAARATANEKAIIASKAVAAAKNALELFASFPAAETVSCKEPRLIRAINNSPRVLTDCSGHRNKKQKTLTSTMNDGNDVAGVVDSDDGTRVNGKLLLCDNTLKEKTEEESSSLGKRRGRVKLPLSMCAYKDQENGITLEENNLSVSKSEGYNGGVAQVIERPSWKCQDLKSPECVKQNKVVRS
notes: tag and its position not described; also called TRBIP2-1; TRBIP2-2
Take B1: the IP-MS count turned out to be 0 with AT3G10480.3 NAC050; 0 with AT5G51230.1 EMF2; 0 in the test with AT2G23380.1 CLF; 0 in the test with AT4G35510.1 TRBIP1; 0 with AT5G08450.1 HDC1; 5 with AT1G49950.3 TRB1.
